In patent publication US20160375155A1 (COLLAGEN MEDICAL, published 2016) one finds Kd data, which are given here for four molecules.

What all share (experiment): dried collagen film in microtiter plate; unbound compound by ICP-MS (Gd); fit to 1 binding site
Test [1] addresses T1, human type I collagen (VitroCol solution, Advanced Biomatrix, cat#5007-A) (human, UniProt P02452 179-1192; P08123 91-1104, limits assumed).
T1 construct: In the assay the collagen was gelled and dried as a fibril film in microtiter wells; also called human collagen; Human Collagen Type I
Here is the method: (§1) Ice-cold 1×PBS pH 10.8 is added to the collagen solution for a final collagen concentration of 10 μM, pH 7.4. Collagen solutions are gelled and dried down in the wells of a 96 well microtiter plate (Corning Polystyrene Flat Bottom, cat#3641). 70 μl of 10 μM collagen is aliquoted into each well in every other lane in the plate (48 wells) and the plate is incubated at 37° C. for 18 hours to form a gel and evaporate to dryness. Ungelled collagen is removed by washing the collagen films with 200 μl 1×PBS pH 7.4 (four times, 15 min per wash). The thin collagen fibril film remains, coating the bottom of each well. After washing by PBS the plate is again dried at 37° C. for 2 hours and is stored at −20° C. The final well content of gelled collagen is measured by determination of hydroxyproline and is around 180 μg/ml.
(§2) a serial dilution of 0.2 μM-30 μM of the peptide chelate is prepared in PBS, pH 7.4 (˜300 μL of solution for each concentration). 90 μl of each concentration is also reserved in a HPLC glass vial as a sample to measure the total concentration. 140 μL of each dilution of peptide chelate is added to wells containing and non-containing collagen (control for nonspecific plastic binging). The plate is then incubated on a shaker table (300 rpm) for 2 hours at room temperature to allow the compound to bind. After 2 hours the supernatant from each well (with or without collagen) is transferred to an HPLC glass vial. The concentration of free, unbound compound in the sample supernatants and the concentration of compound in the reserved (total) sample are determined by ICP-MS (Agilent 7500, gadolinium concentration). The concentration of compound bound to collagen is determined as [bound]=[total]−[unbound].
(§3) The binding of compounds to human, rat and dog collagen (5 μM) was measured over the concentration range 0.2-5 μM of Comp ID Nos.: 1-4. The binding data was fit to a model of 1 binding site.

The target of test [2] is T2, rat collagen (acid soluble, type I, rat tail, Millipore Inc, cat#08-115) (rat, UniProt P02454 152-1207; P02466 86-1125).
T2 construct: In the assay the collagen was gelled and dried as a fibril film in microtiter wells; also called rat collagen type I
Here is the method:
as §1, §2, §3

Test [3] deals with T3, Canine collagen (Native canine Collagen Type I and III protein, YO protein AB, cat#739) (canine, UniProt Q9XSJ7 158-1214; O46392 80-1119).
T3 construct: The bought preparation is a mixture of native canine collagen types I and III, not one defined trimer; It was gelled and dried as a film in microtiter wells; also called dog collagen
T3 sequence (Q9XSJ7 158-1214, chain 1 of 2): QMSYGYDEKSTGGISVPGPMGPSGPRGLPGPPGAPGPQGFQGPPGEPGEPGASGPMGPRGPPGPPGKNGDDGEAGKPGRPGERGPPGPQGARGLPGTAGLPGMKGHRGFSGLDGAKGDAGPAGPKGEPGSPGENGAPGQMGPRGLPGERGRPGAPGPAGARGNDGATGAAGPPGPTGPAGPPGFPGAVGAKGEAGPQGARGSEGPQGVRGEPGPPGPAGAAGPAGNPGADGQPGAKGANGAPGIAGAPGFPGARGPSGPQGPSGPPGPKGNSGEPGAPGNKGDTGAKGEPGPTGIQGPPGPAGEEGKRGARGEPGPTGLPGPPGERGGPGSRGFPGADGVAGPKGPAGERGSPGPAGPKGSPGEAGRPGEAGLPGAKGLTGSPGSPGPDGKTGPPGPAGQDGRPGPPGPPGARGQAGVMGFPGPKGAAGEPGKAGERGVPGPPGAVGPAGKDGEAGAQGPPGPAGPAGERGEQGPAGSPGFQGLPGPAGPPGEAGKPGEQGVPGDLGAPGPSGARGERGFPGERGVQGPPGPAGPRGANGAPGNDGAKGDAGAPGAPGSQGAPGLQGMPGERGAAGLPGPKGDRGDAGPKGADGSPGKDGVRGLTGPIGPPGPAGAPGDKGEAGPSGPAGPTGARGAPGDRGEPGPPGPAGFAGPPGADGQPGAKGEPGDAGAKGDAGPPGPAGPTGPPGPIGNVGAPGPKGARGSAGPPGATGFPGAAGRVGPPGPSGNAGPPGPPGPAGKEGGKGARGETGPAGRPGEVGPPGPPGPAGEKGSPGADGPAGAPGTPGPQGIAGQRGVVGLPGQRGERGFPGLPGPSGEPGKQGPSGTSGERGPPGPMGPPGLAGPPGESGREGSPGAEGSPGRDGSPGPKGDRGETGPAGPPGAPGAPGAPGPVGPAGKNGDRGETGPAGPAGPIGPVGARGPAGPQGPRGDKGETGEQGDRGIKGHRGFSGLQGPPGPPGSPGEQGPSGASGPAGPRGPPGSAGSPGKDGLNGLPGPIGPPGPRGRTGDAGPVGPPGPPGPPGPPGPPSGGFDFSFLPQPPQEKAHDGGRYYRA
T3 sequence (O46392 80-1119, chain 2 of 2): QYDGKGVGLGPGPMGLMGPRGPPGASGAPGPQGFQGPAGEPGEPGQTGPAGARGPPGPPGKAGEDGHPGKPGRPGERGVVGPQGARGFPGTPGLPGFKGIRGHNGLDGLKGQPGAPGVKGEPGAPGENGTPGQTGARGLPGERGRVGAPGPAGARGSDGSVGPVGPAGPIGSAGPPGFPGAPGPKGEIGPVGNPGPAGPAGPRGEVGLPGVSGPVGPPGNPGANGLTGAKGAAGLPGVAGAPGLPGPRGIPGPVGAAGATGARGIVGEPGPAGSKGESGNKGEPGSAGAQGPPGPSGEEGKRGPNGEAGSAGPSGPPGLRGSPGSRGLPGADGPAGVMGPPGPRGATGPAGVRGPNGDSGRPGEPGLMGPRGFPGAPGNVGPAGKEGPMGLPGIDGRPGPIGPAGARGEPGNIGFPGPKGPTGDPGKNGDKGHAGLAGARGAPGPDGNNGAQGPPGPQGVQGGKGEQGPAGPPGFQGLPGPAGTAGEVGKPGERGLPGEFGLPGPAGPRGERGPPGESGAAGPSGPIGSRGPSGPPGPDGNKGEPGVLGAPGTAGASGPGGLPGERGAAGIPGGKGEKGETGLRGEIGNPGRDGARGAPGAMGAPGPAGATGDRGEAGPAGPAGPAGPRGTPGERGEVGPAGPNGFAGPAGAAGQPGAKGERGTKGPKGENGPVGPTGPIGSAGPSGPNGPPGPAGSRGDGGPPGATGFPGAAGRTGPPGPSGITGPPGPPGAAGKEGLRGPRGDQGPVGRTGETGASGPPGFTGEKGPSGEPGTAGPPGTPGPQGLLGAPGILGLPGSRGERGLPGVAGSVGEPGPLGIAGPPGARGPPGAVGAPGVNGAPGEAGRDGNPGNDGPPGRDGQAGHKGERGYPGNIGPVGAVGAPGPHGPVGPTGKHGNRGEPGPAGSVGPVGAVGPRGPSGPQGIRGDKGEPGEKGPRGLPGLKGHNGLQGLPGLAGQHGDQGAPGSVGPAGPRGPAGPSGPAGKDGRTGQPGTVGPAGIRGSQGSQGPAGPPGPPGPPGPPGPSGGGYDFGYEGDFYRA
The procedure: as §1, §2, §3

Bridge positions count the residues as written; N and C are the ends. Square brackets hold non-standard residues; d marks the D form. Ends that are not written are not given here. GdDOTAGA = Gd(III)-DOTAGA chelate, amide-linked; Bip = N[C@@H](Cc1ccc(-c2ccccc2)cc1)C(=O)O

T1 sequence (P02452 179-1192 limits assumed, chain 1 of 2): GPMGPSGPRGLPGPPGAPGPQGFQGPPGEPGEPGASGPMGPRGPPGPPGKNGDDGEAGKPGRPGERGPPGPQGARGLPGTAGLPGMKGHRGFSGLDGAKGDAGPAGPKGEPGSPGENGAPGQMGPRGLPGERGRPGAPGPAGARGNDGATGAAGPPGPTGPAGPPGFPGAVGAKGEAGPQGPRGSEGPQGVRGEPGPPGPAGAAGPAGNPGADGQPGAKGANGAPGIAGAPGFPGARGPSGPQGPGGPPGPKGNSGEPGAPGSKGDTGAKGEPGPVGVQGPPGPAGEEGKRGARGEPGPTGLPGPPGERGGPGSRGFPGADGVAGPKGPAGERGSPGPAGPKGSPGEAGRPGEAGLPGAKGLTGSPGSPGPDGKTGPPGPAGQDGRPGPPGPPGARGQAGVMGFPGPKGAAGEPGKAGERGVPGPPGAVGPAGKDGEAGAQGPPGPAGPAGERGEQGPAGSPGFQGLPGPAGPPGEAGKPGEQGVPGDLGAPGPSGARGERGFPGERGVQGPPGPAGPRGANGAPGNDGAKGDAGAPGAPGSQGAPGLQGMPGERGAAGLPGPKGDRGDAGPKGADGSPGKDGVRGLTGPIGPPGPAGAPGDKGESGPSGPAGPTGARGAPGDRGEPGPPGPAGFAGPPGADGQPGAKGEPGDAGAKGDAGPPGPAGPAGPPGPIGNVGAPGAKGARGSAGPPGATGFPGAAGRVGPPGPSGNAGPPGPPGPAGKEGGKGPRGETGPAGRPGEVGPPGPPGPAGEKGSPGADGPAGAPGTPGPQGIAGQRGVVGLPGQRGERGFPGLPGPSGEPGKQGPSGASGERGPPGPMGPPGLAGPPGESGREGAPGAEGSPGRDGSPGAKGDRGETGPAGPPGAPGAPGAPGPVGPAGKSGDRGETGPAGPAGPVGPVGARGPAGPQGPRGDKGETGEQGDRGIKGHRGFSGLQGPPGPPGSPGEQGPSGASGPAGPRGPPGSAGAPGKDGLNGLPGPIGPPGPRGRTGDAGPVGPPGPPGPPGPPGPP
T1 sequence (P08123 91-1104 limits assumed, chain 2 of 2): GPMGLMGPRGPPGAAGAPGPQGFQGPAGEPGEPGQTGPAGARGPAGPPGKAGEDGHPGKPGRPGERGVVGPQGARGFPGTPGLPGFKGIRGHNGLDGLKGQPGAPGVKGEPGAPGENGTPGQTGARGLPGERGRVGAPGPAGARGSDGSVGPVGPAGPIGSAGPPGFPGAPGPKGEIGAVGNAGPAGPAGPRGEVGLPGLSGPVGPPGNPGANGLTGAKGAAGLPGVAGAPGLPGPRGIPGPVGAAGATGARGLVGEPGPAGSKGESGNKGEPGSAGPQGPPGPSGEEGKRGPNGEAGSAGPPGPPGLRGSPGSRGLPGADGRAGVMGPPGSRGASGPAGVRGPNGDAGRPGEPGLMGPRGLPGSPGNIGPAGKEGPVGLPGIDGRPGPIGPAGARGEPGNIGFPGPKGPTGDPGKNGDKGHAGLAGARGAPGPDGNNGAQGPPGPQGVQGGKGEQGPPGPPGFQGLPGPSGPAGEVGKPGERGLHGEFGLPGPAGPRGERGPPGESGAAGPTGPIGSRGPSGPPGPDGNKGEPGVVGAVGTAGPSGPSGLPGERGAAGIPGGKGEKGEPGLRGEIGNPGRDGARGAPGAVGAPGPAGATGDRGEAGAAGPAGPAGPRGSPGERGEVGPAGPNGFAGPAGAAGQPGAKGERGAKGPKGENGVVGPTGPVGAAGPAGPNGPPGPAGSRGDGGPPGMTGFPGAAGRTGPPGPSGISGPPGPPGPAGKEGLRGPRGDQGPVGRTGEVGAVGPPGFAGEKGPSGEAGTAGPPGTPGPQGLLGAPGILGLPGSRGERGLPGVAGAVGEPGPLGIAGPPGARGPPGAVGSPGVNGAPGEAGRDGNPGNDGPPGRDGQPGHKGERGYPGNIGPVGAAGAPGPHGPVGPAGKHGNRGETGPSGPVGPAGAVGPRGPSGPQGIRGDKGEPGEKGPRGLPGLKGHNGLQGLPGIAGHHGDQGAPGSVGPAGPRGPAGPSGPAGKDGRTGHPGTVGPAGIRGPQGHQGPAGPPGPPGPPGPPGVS

B1: Compound ID No. 4 (peptide)
peptide: KWHCYTKFPHHYCVY[Bip]-NH2
modifications: disulfide 4-13; not fully specified (residues 1, 7, N-terminus); printed as K-W-H-C-Y-T-K-F-P-H-H-Y-C-V-Y-Bip; also: GdDOTAGA on N-terminal amine or lysine epsilon amino groups
notes: Tested as the Gd(III)-DOTAGA chelate conjugate of the cyclic peptide; also called CMPD ID 4
Broadly, the Kd is the equilibrium constant for the complex coming apart. Lower therefore signals higher affinity. On to B1, for which the figures for the Kd in test [1], in test [2] and in test [3] were 9.6 µM, 4.6 µM and 2 µM, respectively.

B2: Compound ID No. 1 (peptide)
peptide: GKWHCTTKFPHHYCLY
modifications: Bip (L-4,4'-biphenylalanine) at position 17; C-terminal amide (NH2); cyclized through Cysteine-Cysteine disulfide bond (Cys5-Cys14); GdDOTAGA coupled by amide bonds to the primary amines (N-terminal amine and lysine epsilon amino groups)
notes: Tested as the Gd(III)-DOTAGA chelate conjugate of the cyclic peptide; also called CMPD ID 1; Comp ID No. 1
Consider B2, for which the results for the dissociation constant Kd in test [1], in test [2] and in test [3] were 3.8 µM, 21.1 µM and 4.4 µM, respectively.

B3: Compound ID No. 3 (peptide)
peptide: GdDOTAGA-K(GdDOTAGA)YWHCTTK(GdDOTAGA)FPHHYCLY[Bip]-NH2
modifications: disulfide 5-14
notes: Tested as the Gd(III)-DOTAGA chelate conjugate of the cyclic peptide; also called CMPD ID 3
In test [1], B3 showed a Kd of 29.8 µM.

B4: Compound ID No. 2 (peptide)
peptide: GdDOTAGA-K(GdDOTAGA)WHCTTK(GdDOTAGA)FPHHYCLY[Bip]-NH2
modifications: disulfide 4-13
notes: Tested as the Gd(III)-DOTAGA chelate conjugate of the cyclic peptide; also called CMPD ID 2
In the case of B4, the figures for the Kd in test [1], in test [2] and in test [3] were 4.9 µM, 20.6 µM and 4.9 µM, respectively.
